Experimental data reported in article PMC11259845, “Potent anti-coronaviral activity of pateamines and new insights into their mode of action”.

Tests used:
Conditions in all cases: protein: recombinant; tags: N-terminal 6xHis, thrombin site
eIF4A1(19-406) WT [1] = molecular target: T1, eIF4A1(19-406) WT (human, UniProt P60842 19-406); test: thermal shift assay; PatA, AMP-PNP, 5 mM Mg2+; TSA: 5 uM eIF4A1(19-406), 50 uM RNA, 1 mM AMP-PNP, 100 uM inhibitor, 75 uM SYPRO Orange, 20 mM HEPES-KOH pH 7.5, 100 mM KCl, 5 mM MgCl2, 1 mM DTT, 10% glycerol; melt 10-95 C
T1 sequence (P60842 19-406): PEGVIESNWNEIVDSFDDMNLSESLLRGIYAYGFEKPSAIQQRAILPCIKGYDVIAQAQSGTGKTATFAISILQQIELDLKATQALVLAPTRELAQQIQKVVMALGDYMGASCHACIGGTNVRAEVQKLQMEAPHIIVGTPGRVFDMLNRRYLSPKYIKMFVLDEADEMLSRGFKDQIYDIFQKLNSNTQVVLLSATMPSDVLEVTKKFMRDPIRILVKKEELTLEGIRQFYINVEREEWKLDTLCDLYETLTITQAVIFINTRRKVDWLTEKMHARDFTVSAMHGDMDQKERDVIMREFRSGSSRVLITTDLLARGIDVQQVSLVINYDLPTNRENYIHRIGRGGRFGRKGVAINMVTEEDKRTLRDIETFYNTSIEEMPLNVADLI

eIF4A1(19-406) WT [2] = molecular target: T1, eIF4A1(19-406) WT; test: thermal shift assay; DMDAPatA, AMP-PNP, 5 mM Mg2+; TSA: 5 uM eIF4A1(19-406), 50 uM RNA, 1 mM AMP-PNP, 100 uM inhibitor, 75 uM SYPRO Orange, 20 mM HEPES-KOH pH 7.5, 100 mM KCl, 5 mM MgCl2, 1 mM DTT, 10% glycerol; melt 10-95 C
eIF4A1(19-406) WT [3] = molecular target: T1, eIF4A1(19-406) WT; test: thermal shift assay; silvestrol, AMP-PNP, 5 mM Mg2+; TSA: 5 uM eIF4A1(19-406), 50 uM RNA, 1 mM AMP-PNP, 100 uM inhibitor, 75 uM SYPRO Orange, 20 mM HEPES-KOH pH 7.5, 100 mM KCl, 5 mM MgCl2, 1 mM DTT, 10% glycerol; melt 10-95 C

| Binder | binding result (eIF4A1(19-406) WT [1]) | binding result (eIF4A1(19-406) WT [2]) | binding result (eIF4A1(19-406) WT [3]) |
| --- | --- | --- | --- |
| UGUGUGUGUG (ssRNA) [(UG)5] | binds | binds |  |
| AGAGAGAGAG (ssRNA) [(AG)5] | binds |  | binds |
| GAGAGAGAGA (ssRNA) [(GA)5] | binds |  | binds |
